The source of these data is article PMC8216272.

In data set [1] the target is T1, myoglobin (UniProt P02144 2-154).
T1 sequence: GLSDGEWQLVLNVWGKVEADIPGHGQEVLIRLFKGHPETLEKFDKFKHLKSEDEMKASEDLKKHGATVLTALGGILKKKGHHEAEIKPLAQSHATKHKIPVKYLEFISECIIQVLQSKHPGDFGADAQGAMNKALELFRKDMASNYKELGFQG
Briefly: aptamer blotting.

In data set [2] the target is T1, myoglobin. Briefly: absorption spectroscopy.
Data set [3] concerns the target T1, myoglobin. Briefly: aptamer blotting. This is another data set of the same source.
The target of data set [4] is T1, myoglobin. Description: aptamer blotting. This is another data set of the same source.
Data set [5] deals with T1, myoglobin. Briefly: aptamer blotting. This is another data set of the same source.
Data set [6] addresses T1, myoglobin. Description: SPR.

In the case of GGGAAGGAGGGAGGAAGGGAGGGAGGG (structured_DNA) [aFGF-PQS20], the binding result in data set [1] is “binds”.
For the molecule GGGTGGGTTTTCTTTGGGTTGGGC (structured_DNA) [N24-07 core], in data set [2], the binding result was “binds”.
On to GGGTGGGAAGGGTTGGG (structured_DNA) [PEA1-06], for which the binding result in data set [3] is “binds”.
On to GGGTGGGTTTCTTGGGAGGG (structured_DNA) [PEA1-11], for which, in data set [3], the binding result is on record as “binds”.
In the case of GGGATAGGGTTGGGCACTCACAGCTGAATGGG (structured_DNA) [PSA-PQS2], in data set [1], the binding result is recorded as “binds”.
In the case of GGGAAGGGTTGGGAGGG (structured_DNA) [PEA1-16], the binding result in data set [3] is on record as “binds”.

B1: N24-01 (structured_DNA)
DNA: ACTAGAACTGATCTACAATTTAGGCCGGGTGTTGGGTGGGTAGGGTTTTCTACATCTCAGCATTCT
As for B1, the binding result in data set [4] is on record as “binds”.
Regarding GGGTGGGAGGGAGGG (structured_DNA) [PEA1-13], in data set [3], the binding result was “binds”.
As to GGGCCGGGAGGGTGCAGGG (structured_DNA) [Annexin II-PQS], in data set [1], the binding result was “binds”.

B2: N24-06 (structured_DNA)
DNA: ACTAGAACTGATCTACAATTTGGGGGGGTTTTGGGGGGGTTGTTGTTTTCTACATCTCAGCATTCT
As to B2, the binding result in data set [4] is given as “binds”.

B3: N24-07 (with primer sites) (structured_DNA)
DNA: ACTAGAACTGATCTACAATTTGGGTGGGTTTTCTTTGGGTTGGGCTTTTCTACATCTCAGCATTCT
As for B3, the binding result in data set [4] is reported as “binds”.

B4: N24-04 (structured_DNA)
DNA: ACTAGAACTGATCTACAATTTGGGGGGGTTTTCTGGGGGGGTTTTTTTTCTACATCTCAGCATTCT
For the molecule B4, the binding result in data set [4] is “binds”.
As to GGGTGGGGGTGGGTTTCTTGGGGTGTAAAGTGGG (structured_DNA) [HER2-PQS3], the binding result in data set [1] is given as “binds”.

B5: N24-03 (structured_DNA)
DNA: ACTAGAACTGATCTACAATTTGGGTTGGGGGGGTTTTGGGTTTTTTTTTCTACATCTCAGCATTCT
B5: the binding result in data set [4] was “binds”.
Take TTTTTTTTTTTTTTTTT (ssDNA) [T17]: in data set [5], the binding result is listed as “binds”.
For the molecule GGGCCGGGAGGGAGGG (structured_DNA) [PEA1-19], the binding result in data set [3] is “binds”.
The same measure, in the same setting: the result for GGGCCGGGTTGGGTGTAGAGTGGG (structured_DNA) [PEA1-02] reads “binds”.
On to GGGCGGGTTGGGCTGGG (structured_DNA) [PEA3-01], for which the Kd in data set [6] was 5.8 nM. That is a single-digit nanomolar value.
In the case of GGGTGGGTTGGGAGGG (structured_DNA) [PEA1-20], the binding result in data set [3] is listed as “binds”.
